How the values were obtained:
WDR44 334-435 (human) = WDR44 334-435 (human) (UniProt Q5JSH3); experiment: ITC
Rab11 (Homo sapiens) = Rab11 (Homo sapiens) (UniProt P62491); conditions: cited from earlier work
SEC = target: the molecule itself; experiment: SEC
[1] = target: Rab11Q70L 6-186-WDR44 334-435 complex (human) (UniProt P62491); experiment: ITC

Chain of Rabin8 (Q96QF0 whole entry): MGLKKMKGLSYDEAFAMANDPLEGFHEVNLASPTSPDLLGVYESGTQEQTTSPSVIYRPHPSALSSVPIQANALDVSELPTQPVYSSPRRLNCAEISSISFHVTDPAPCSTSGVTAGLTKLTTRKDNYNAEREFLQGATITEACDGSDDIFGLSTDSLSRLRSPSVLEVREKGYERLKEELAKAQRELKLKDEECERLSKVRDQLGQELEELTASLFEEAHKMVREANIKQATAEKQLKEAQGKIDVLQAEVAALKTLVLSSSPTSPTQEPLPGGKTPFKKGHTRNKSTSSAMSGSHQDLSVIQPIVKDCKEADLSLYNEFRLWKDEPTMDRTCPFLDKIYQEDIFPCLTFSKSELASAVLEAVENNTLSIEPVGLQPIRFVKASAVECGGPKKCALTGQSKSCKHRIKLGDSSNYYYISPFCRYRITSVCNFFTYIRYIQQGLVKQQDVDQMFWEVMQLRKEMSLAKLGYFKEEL
Chain of Rab11 (Homo sapiens) (P62491 2-213): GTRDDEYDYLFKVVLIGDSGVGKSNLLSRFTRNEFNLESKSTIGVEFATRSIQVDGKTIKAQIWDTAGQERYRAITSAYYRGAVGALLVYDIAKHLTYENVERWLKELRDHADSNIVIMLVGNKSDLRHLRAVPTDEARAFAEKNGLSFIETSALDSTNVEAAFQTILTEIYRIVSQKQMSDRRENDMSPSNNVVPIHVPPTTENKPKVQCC
Chain of WDR44 334-435 (human) (Q5JSH3 334-435): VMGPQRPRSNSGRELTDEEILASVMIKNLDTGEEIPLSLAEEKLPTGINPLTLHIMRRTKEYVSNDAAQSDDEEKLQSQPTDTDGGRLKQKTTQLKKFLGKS

| Molecule | binding result (SEC) | other results |
| --- | --- | --- |
| Rab11Q70L 6-186 (calorimetry) (from UniProt P62491 6-186) (domain or fragment) | – | Kd (WDR44 334-435 (human)): 0.54 µM |
| Rabin8 (from UniProt Q96QF0) | – | Kd (Rab11 (Homo sapiens)): 40 µM |
| Rabin8 144-C (domain or fragment, human, UniProt Q96QF0-2 144-460, looked up) RLRSPSVLEVREKGYERLKEELAKAQRELKLKDEECERLSKVRDQLGQELEELTASLFEEAHKMVREANIKQATAEKQLKEAQGKIDVLQAEVAALKTLVLSSSPTSPTQEPLPGGKTPFKKGHTRNKSTSSAMSGSHQDLSVIQPIVKDCKEADLSLYNEFRLWKDEPTMDRTCPFLDKIYQEDIFPCLTFSKSELASAVLEAVENNTLSIEPVGLQPIRFVKASAVECGGPKKCALTGQSKSCKHRIKLGDSSNYYYISPFCRYRITSVCNFFTYIRYIQQGLVKQQDVDQMFWEVMQLRKEMSLAKLGYFKEEL | binds | – |
| Rabin8 144-C S147D/S149D (domain or fragment, human, UniProt Q96QF0-2 144-460, looked up) RLRDPDVLEVREKGYERLKEELAKAQRELKLKDEECERLSKVRDQLGQELEELTASLFEEAHKMVREANIKQATAEKQLKEAQGKIDVLQAEVAALKTLVLSSSPTSPTQEPLPGGKTPFKKGHTRNKSTSSAMSGSHQDLSVIQPIVKDCKEADLSLYNEFRLWKDEPTMDRTCPFLDKIYQEDIFPCLTFSKSELASAVLEAVENNTLSIEPVGLQPIRFVKASAVECGGPKKCALTGQSKSCKHRIKLGDSSNYYYISPFCRYRITSVCNFFTYIRYIQQGLVKQQDVDQMFWEVMQLRKEMSLAKLGYFKEEL | binds | – |
| Rabin8 144-C S147A/S149A (domain or fragment, human, UniProt Q96QF0-2 144-460, looked up) RLRAPAVLEVREKGYERLKEELAKAQRELKLKDEECERLSKVRDQLGQELEELTASLFEEAHKMVREANIKQATAEKQLKEAQGKIDVLQAEVAALKTLVLSSSPTSPTQEPLPGGKTPFKKGHTRNKSTSSAMSGSHQDLSVIQPIVKDCKEADLSLYNEFRLWKDEPTMDRTCPFLDKIYQEDIFPCLTFSKSELASAVLEAVENNTLSIEPVGLQPIRFVKASAVECGGPKKCALTGQSKSCKHRIKLGDSSNYYYISPFCRYRITSVCNFFTYIRYIQQGLVKQQDVDQMFWEVMQLRKEMSLAKLGYFKEEL | binds | – |
| Rabin8C (residues 270-460) (domain or fragment) NKSTSSAMSGSHQDLSVIQPIVKDCKEADLSLYNEFRLWKDEPTMDRTCPFLDKIYQEDIFPCLTFSKSELASAVLEAVENNTLSIEPVGLQPIRFVKASAVECGGPKKCALTGQSKSCKHRIKLGDSSNYYYISPFCRYRITSVCNFFTYIRYIQQGLVKQQDVDQMFWEVMQLRKEMSLAKLGYFKEEL | – | Kd [1]: 37.2 µM |
